Source: patent US20190338026A1 (University of Texas, published 2019)
Positions count from the first letter of the chain named.

T1: human LAIR1 extracellular domain (ECD) protein with 6 HIS tag at the C-terminus (human, UniProt Q6GTX8 22-165)
T1 construct: Produced recombinantly in HEK293 cells; the whole entry is named here; also called LAIR1 ECD; LAIR1-ECD
T1 chain: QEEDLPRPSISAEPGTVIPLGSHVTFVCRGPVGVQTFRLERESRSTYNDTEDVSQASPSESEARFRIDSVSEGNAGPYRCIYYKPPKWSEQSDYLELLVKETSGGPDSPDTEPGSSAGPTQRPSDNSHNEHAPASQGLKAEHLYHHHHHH

T2: LAIR1 on LAIR1 reporter cells (human, UniProt Q6GTX8 22-165, limits assumed)
T2 chain: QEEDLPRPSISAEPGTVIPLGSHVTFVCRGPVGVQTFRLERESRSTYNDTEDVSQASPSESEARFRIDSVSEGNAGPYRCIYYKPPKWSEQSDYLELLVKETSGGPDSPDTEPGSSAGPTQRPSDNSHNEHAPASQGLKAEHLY

B1: LA-64 (antibody, V domains shown)
VH: EQSLESGGGLITPGGTLTLTCTASGFTVTRYYMNWVRQAPGKGLEWIGYIYASSKTYYANWAKGRFTISKTSTTVDLKMTSLTAEDTGTYFCARGGVGNSGLNLDLWGPGTLVTISS
VL: ELVLTQTPASVSEPVGGTVTIKCQASQSIGSWLAWYQQKPGQPPKLLIYQASRLASGVSSRFGGSGSGTEFTLTISDLECADAATYYCQQAEYSGDVENTFGGGTEVVVK
notes: Rabbit monoclonal IgG; also called mAb LA-64
B2: LA-219 (antibody, V domains shown)
VH: B1 VH with L4V
VL: B1 VL with V3D, L4M
notes: Rabbit monoclonal IgG; Called a potential antagonist antibody
B3: LA-101 (antibody, V domains shown)
VH: EQSVEESGGRLVTPGTPLTLTCTVSGFSLSSFHMCWVRQAPGKGLEYIGIIYPGGSTGYANWAKGRFTVSKASNTVDLKISSPTTEDTATYFCARVNYGDWINGMDLWGPGTLVTISS
VL: ELDMTQTPASVSEPVGGTVTIKCQASQSIGSNLAWYQQKPGQRPKLLIYKASTLASGVPSRFKGSGSGTDFTLTISDLECADAASYYCQQAYWSGNVDNVFGGGTEVEIK
notes: Rabbit monoclonal IgG
B4: LA-63 (antibody, V domains shown)
VH: EQSVEESGGRLVAPGGSLTLTCTVSGFSLSSYAMSWVRQAPGKGLEWIGVMYNSGSAYYASWAKGRFTISRTSTTVDLKVTSLTTEDTATYFCGRGGSNSAWGDDLWGPGTLVTVSS
VL: ELDMTQTPASVSEPVGGTVTIKCQASQSISIRYFSWYQQKPGQPPKLLIYGASTLASGVPSRFKGSGSGTDFTLTISDLECADAATYYCQDSNYNSNYFGAFGGGTEVVVK
notes: Rabbit monoclonal IgG; also called mAb LA-63
B5: LA-87 (antibody, V domains shown)
VH: QSVKESGGRLVTPGGSLTLTCTVSGFSLSNYNIQWVRQAPGKGLEWIGFISPAGNGYYASWAKGRFTISKASSTTVELKMTSLTASDTATYFCARHWDLWGPGTLVTISS
VL: ELVLTQTASSVSAAVGGTVTISCQSSQSVYSNYLSWFQQKPGQPPKELVYWTSTLQSGVPSRFSGSGSGTQFTLTISDLECDDAATYYCLGGYSGWFYAFGGGTEVVVK
notes: Rabbit monoclonal IgG; also called mAb LA-87
B6: LA-95 (antibody, V domains shown)
VH: EQSLKESGGRLVTPGGSLTLTCTASGFDINNYNIQWVRQAPGKGLEWIGFISPAGNEYSATWAKGRFTIYKTSSTTVELKMTSLTASDTATYFCARHWDSWGPGTLVTISS
VL: B5 VL with L4M, A8E, S10P, Y33R, W96N, F97I, A99V, V107E, V108I
notes: Rabbit monoclonal IgG; also called mAb LA-95
B7: LA-37 (antibody, V domains shown)
VH: EQSLEESGGDLVKPGASLTLTCKASGFSFSSSEFMCWVRQAPGKGLEWIACIYGGLSDDTYFASWAKGRFTISKTSSITVTLQMTSLTAADTATYFCARSCDVNYYGFDPWGPGTLVTISS
VL: ELVLTQTPAPVSAAVGDTVTIKCQASQNKGTNLAWYQQKPGQPPKLLIYLSSTLASGVPPRFKGSRSGTEYTLTISDLECADAATYFCQSTYYGSNGLTFGGGTEVEIK
notes: Rabbit monoclonal IgG; also called mAb LA-37
B8: LA-117 (antibody, V domains shown)
VH: QSVKESGGDLVKPGASLTLACTASGFSFSDGYYMCWVRQAPGKGLEWIGCIHSSSGSIYYASWAKGRFTISKTSSTMVTLQMSSLTAADTATYFCARDSESYGYNPCELWGPGTLVTISS
VL: ELDLTQTPASVSEAVGGTVTIKCQASQTISNYLAWYQQKPGQRPKLLIYAASSLASGVSSRFRGSRSGTEYTLTITDLECDDAATYYCQCTYYGTTYVGGAFGGGTELEIK
notes: Rabbit monoclonal IgG
B9: LA-35 (antibody, V domains shown)
VH: EQSVKESGGRLVTPGTPLTLTCTVSGIDLSYYSMGWFRQAPGKGLEWIGVISSSDSTYYANWAKGRFTISKTSTTVDLKIAGPTTEDTATYFCARVLANSYNAFNLWGPGSLVTISS
VL: ELDLTQTPASVSEPVGGTVTIKCQASQSVGSRLAWYQQKPGQPPKLLIYKASTLASGVPSRFKGSGSGTQFTLTMSDLECADAATYYCQCTNISSAYLGAFGGGTEVEIK
notes: Rabbit monoclonal IgG; also called mAb LA-35
B10: LA-222 (antibody, V domains shown)
VH: EQSVEESGGDLVKPGASLTLTCTASGFSFTYWICWVRQAPGKGLEWIACIYAGSSGDTYYASWAKGRFTISKTSSTTVTLQMTSLTAADTATYFCARSPDYVAWGYDLWGPGTRVTVSS
VL: ELVLTQTPASVSAAVGGTVTINCQASQSIGTNLVWYQQKPGQPPKLLFYYASTLASGVPSRFRGSRSGTEYTLTISDLECADAATYYCQCIYYGGNYGHTFGGGTEVVVK
notes: Rabbit monoclonal IgG
B11: LA-30 (antibody, V domains shown)
VH: EQSVESGGGLVQPEGSLTLTCKASGFDFSRNAICWVRQAPGKGPEWIACYSFSSSATYYASWAKSRFTISKTSSTTVTLQMTSLTAADTATYFCARVDIYGGSRYWGMWGPGTLVTISS
VL: ELVMTQTPASVEAAVGGTVTIKCQASQNIGGDLAWYQQKPGQPPKLLIYRASTLESGVPSRFSGSGSGTEFTLTISDLECADAATYYCQDTDIGSGAFGGGTELEIK
notes: Rabbit monoclonal IgG; also called mAb LA-30
B12: LA-252 (antibody, V domains shown)
VH: EQSVEESGGRLVTPGTPLTLTCTASGFTISDYHMCWVRQAPGKGLEWIGLIRASHSTAYASWANGRFTISRTSTTVDLKITSPTSEDTATYFCARYGGSGIGCNLWGPGTLVTISS
VL: ELVLTQTPASVSEPVGGTVTIKCQASQSIDSNLAWYQQKPGQPPKQLIYAVSNLASGVPSRFKGSGSGTEFTLTISDLECADAASYYCECTYYGNSYVGGFGGGTEVEIK
notes: as for B2
B13: LA-151 (antibody, V domains shown)
VH: SSSVEESGGRLVTPGTPLTLTCTVSGFSLGSYAMGWVRQGPGKGLEWIGAVYGTTGYIYFATWAKGRFTISKTSTTVDLKITSPTTEDTATYFCARGYLTDSIANGFGVWGPGTLVTVSS
VL: ELDLTQTPASVSEPVGGTVTIKCQASQTITNRYLAWYQQKPGQPPKLLIYQSSKLASGVSSRFKGSGSGTDFTLTISDLECADAATYYCQCTDYGSTYLGTFGGGTEVEIK
notes: Rabbit monoclonal IgG
B14: LA-155 (antibody, V domains shown)
VH: EQSLEESGGDLVKPEGSLTLTCTASGFSFNSNYWICWVRQTPGKGLEWIGCIYSGSSGDTYYASWAKGRFTISKTSSTTVTLQMTSLTAADTATYFCARGADYVYWSYGLWGPGTLVTISS
VL: ELVLTQTPASVSAAVGGTLTIKCQASETIGTNLAWYQQKPGQPPKLLIYLASYLASGVSSRFKGSRSGTEFTLTISDLDCDDAATYYCQSTHFGNGHTFGGGTEVVVK
notes: Rabbit monoclonal IgG

Target: T1, human LAIR1 extracellular domain (ECD) …
Assay: ELISA, LAIR1 ECD coated, mAb titrated, anti-rabbit HRP
Experimental: (§1) The inventors then used a concentration titration (0-10 μg/ml) by ELISA to determine the LAIR1 monoclonal antibody (mAbs) binding to human LAIR1 ECD. […] For FIGS. 2-39, X axis indicates the antibody concentrations and Y-axis is binding signals, measured as OD (450 nm). To perform the ELISA assay, LAIR1 ECD recombinant protein was coated on high absorption 96-well plates. Serial diluted (3-fold) LAIR1 mAb was added to the coated/blocked plates and detected using goat anti-rabbit F(ab′)2 conjugated HRP as secondary antibody. All assays were repeated 3 times and the titration curves were fitted using 4-parameter fitting curve using the GraphPad software for EC₅₀ estimation.
(§2) Serial dilutions of the LAIR1 monoclonal antibodies (IgGs or scFvs fragments), starting from […] and 3-fold titration down for 12 steps, were added to the 96-well plate for binding by incubating 45 minutes at 37° C. with a cover on the assay plate. Then the plates were washed with PBS containing Tween 20 (0.05% concentration) for 3 times and PBS one time. […] Detection was conducted by adding HRP substrate, TMB (ThermoFisher) for 10 minutes, and stopped by adding 50 μl/well of 2N H2504. The plates were read for absorbance at 450 nm using a plate reader (SpectraMax M4, Molecular Devices). Data were collected and graphed using a 4-parameter fitting curve with GrapPad Prism 7 software for EC₅₀ calculation.

EC50 [pM]	Binder
90	B1
60	B2
50	B3
234000	B4
60	B5
40	B6
50	B7
80	B8
80	B9
50	B10
70	B11
50	B12
80	B13
40	B14

Target: T2, LAIR1 on LAIR1 reporter cells
Assay: cell-based or functional assay

GFP+% of LAIR1 reporter cells, collagen I coated, soluble Ab [%]	Binder
1.5	B1
0.924	B2
2.92	B3
2.42	B4
1.45	B5
0.711	B6
0.86	B7
3.19	B8
1.1	B9
0.905	B10
1.51	B11
0.679	B12
0.678	B13
0.746	B14

Target: T2, LAIR1 on LAIR1 reporter cells
Assay: cell-based or functional assay
Remark: another data set of the same source

GFP+ of LAIR1 reporter cells, Collagen I coated [%]	GFP+ of LAIR1 reporter cells, Collagen I coated + K562 [%]	Binder
< 5	< 5	B2
< 5	< 5	B12

Target: T1, human LAIR1 extracellular domain (ECD) …
Assay: ELISA, LAIR1 ECD coated
Experimental: as §1, §2

EC50 (read off the curve) [ng/mL]	Binder
~10	B1
~8	B2
~8	B3
~10	B5
~7	B6
~8	B7
~10	B8
~10	B9
~7	B10
~10	B11
~8	B12
~10	B13
~7	B14

Target: T2, LAIR1 on LAIR1 reporter cells
Assay: cell-based or functional assay
Remark: another data set of the same source

GFP+% of LAIR1 reporter cells, collagen I coated, soluble Ab and K562 cells [%]	Binder
2.29	B1
2.11	B2
1.31	B4
0.844	B5
0.595	B6
1.08	B7
1.13	B9
0.792	B10
1.94	B11
0.698	B12
1.95	B13
0.867	B14
